The results in this text go back to the RNAGym collection of RNA variant scans (doi:10.7554/elife.80360).

B1: CPEB3 Ribozyme (parent)
chain: GGGGGCCACAGCAGAAGCGUUCACGUCGCGGCCCCUGUCAGAUUCUGGUGAAUCUGCGAAUUCUGCUGU

In this data set the parent is B1. The data set can be described thus: self-cleavage, relative activity (ratio to wild type); higher = more cleavage; co-transcriptional.
For the variant G30U A60C, the self-cleavage was found to be 0.173.

As to G30U A60U, the self-cleavage came out at 0.213.

Consider G30U U64A, for which the self-cleavage is 0.288.

For the variant G30U U64G, the self-cleavage came out at 0.219.

For the variant G30U U46C, the self-cleavage stood at 0.39.

Regarding G30U U46A, the self-cleavage was determined as 0.44.

Consider G31C A40G, for which the self-cleavage was 0.229.

As for G31A U43C, the self-cleavage is 0.601.

Turning to G31A U43G, the self-cleavage was found to be 0.524.

Turning to G31A U43A, the self-cleavage was 0.59.

As for G31C U38G, the self-cleavage is 0.191.

In the case of G31C U38C, the self-cleavage is 0.191.

Take G30U U44A: the self-cleavage came to 0.248.

G30U U44G: the self-cleavage is 0.308.

Take G30U U44C: the self-cleavage worked out at 0.364.

G31A C33U: the self-cleavage amounted to 0.587.

Turning to G31A C33A, the self-cleavage came to 0.266.

Regarding G31U U55C, the self-cleavage worked out at 0.459.

Turning to G31U U55G, the self-cleavage came to 0.274.

Consider G31C G47C, for which the self-cleavage came out at 0.271.

As for G31C G47U, the self-cleavage was found to be 0.239.

Turning to G31C G47A, the self-cleavage came to 0.249.

Consider G30U C63A, for which the self-cleavage was found to be 0.181.

As to G30U C63G, the self-cleavage turned out to be 0.261.

As for G31U G65U, the self-cleavage is 0.352.

Take G31U G65C: the self-cleavage turned out to be 0.358.

Turning to G31A U69G, the self-cleavage came out at 1.02.

Take G31A G50C: the self-cleavage came out at 0.84.

G31A G50U: the self-cleavage came out at 0.889.

With G31A G50A, the self-cleavage was 0.95.

With G31U A40G, the self-cleavage was 0.457.

With G31U A40C, the self-cleavage came to 0.254.

On to G31C U64A, for which the self-cleavage worked out at 0.111.

Turning to G31C U64C, the self-cleavage turned out to be 0.273.

Turning to G31A A42G, the self-cleavage was 0.794.

As for G31A A42U, the self-cleavage amounted to 0.638.

G30U G48A: the self-cleavage was determined as 0.455.

On to G30U G48C, for which the self-cleavage came out at 0.416.

Turning to G30U G48U, the self-cleavage is 0.393.

In the case of G31A C57A, the self-cleavage was determined as 0.307.

G31A C57U: the self-cleavage was determined as 0.34.

On to G30U A59C, for which the self-cleavage stood at 0.172.

Take G30U A59U: the self-cleavage turned out to be 0.222.

Regarding G30U A59G, the self-cleavage is 0.309.

Turning to G31C G37A, the self-cleavage turned out to be 0.19.

For G31C G37C, the self-cleavage was found to be 0.217.

As to G31C G37U, the self-cleavage was found to be 0.203.

Take G31A U53A: the self-cleavage was determined as 0.554.

G31A U53C: the self-cleavage is 0.58.

Regarding G31U C33U, the self-cleavage came out at 0.4.

With G31U C33G, the self-cleavage is 0.2.

Consider G30U C35A, for which the self-cleavage amounted to 0.191.

As for G30U C35G, the self-cleavage came out at 0.213.

For G31A U44A, the self-cleavage amounted to 0.808.

Turning to G31A U44G, the self-cleavage is 0.585.

As to G31A U44C, the self-cleavage amounted to 0.749.

As for G31C U55A, the self-cleavage is 0.188.

Regarding G31C U55C, the self-cleavage is 0.225.

In the case of G31A U38C, the self-cleavage turned out to be 0.762.

In the case of G31U U44C, the self-cleavage stood at 0.618.

For the variant G31U A51G, the self-cleavage came to 0.636.

Regarding G31U C39U, the self-cleavage was determined as 0.357.

Take G31U C39G: the self-cleavage is 0.437.

As for G31U C39A, the self-cleavage was determined as 0.319.

Regarding G31A G58A, the self-cleavage is 0.741.

Consider G31U G37C, for which the self-cleavage amounted to 0.189.

Turning to G31U G37U, the self-cleavage was 0.163.

For the variant G31C U62G, the self-cleavage came out at 0.228.

As to G31A C35G, the self-cleavage was determined as 0.26.

Take G31C A52G: the self-cleavage worked out at 0.197.

For G31C A52U, the self-cleavage was determined as 0.184.

With G31C A52C, the self-cleavage came to 0.266.

As to G31C G41C, the self-cleavage amounted to 0.173.

With G31C G41A, the self-cleavage is 0.201.

Take G30U C39A: the self-cleavage stood at 0.273.

On to G30U C39U, for which the self-cleavage is 0.252.

Take G30U C39G: the self-cleavage is 0.29.

In the case of G31U G47U, the self-cleavage amounted to 0.795.

Turning to G31U G47C, the self-cleavage came to 0.684.

For G31U G47A, the self-cleavage was 0.787.

With G31C A60U, the self-cleavage is 0.144.

Take G31C A60G: the self-cleavage is 0.226.

As for G31C A60C, the self-cleavage worked out at 0.21.

Take G30U G31A: the self-cleavage was determined as 0.196.

On to G30U G31C, for which the self-cleavage came to 0.149.

On to G30U C34G, for which the self-cleavage amounted to 0.193.

For G30U C34U, the self-cleavage turned out to be 0.323.

Take G30U G41A: the self-cleavage turned out to be 0.216.

G30U G41U: the self-cleavage amounted to 0.229.

G30U U43A: the self-cleavage was determined as 0.311.

Turning to G30U U43G, the self-cleavage stood at 0.281.

For G30U U43C, the self-cleavage worked out at 0.38.

Take G31U: the self-cleavage was determined as 0.782.

G31C: the self-cleavage turned out to be 0.255.

Take G31A: the self-cleavage turned out to be 0.931.

On to G31A A59C, for which the self-cleavage worked out at 0.394.

Consider G31A A59U, for which the self-cleavage was 0.441.

In the case of G31U C57A, the self-cleavage was 0.208.

In the case of G31U C57U, the self-cleavage stood at 0.229.

Regarding G31A A60G, the self-cleavage turned out to be 0.475.

Take G30U A40G: the self-cleavage was 0.341.

Take G31U C35G: the self-cleavage is 0.252.

For the variant G30U C54A, the self-cleavage amounted to 0.248.

Take G30U C54U: the self-cleavage came to 0.339.

With G30U C54G, the self-cleavage was 0.248.

For G30C U67A, the self-cleavage amounted to 0.869.

With G31U U36G, the self-cleavage stood at 0.738.

Regarding G31U U36A, the self-cleavage came to 0.189.

As to G31U U61A, the self-cleavage came to 0.289.

As for G31U U61G, the self-cleavage came out at 0.351.

G30U A42C: the self-cleavage was determined as 0.282.

Turning to G30U A42U, the self-cleavage turned out to be 0.247.

For the variant G31C U44G, the self-cleavage came to 0.242.

For G31C U44A, the self-cleavage turned out to be 0.257.

For the variant G31U U67G, the self-cleavage is 0.919.

Regarding G31U U67A, the self-cleavage came to 0.89.

For G31U A60G, the self-cleavage came to 0.277.

For G31U A60U, the self-cleavage turned out to be 0.229.

With G31U U49A, the self-cleavage turned out to be 0.71.

As for G31U U49C, the self-cleavage was determined as 0.731.

G30U A52G: the self-cleavage was 0.287.

For the variant G30U A52C, the self-cleavage stood at 0.395.

G31U G58C: the self-cleavage was 0.611.

In the case of G30U G56A, the self-cleavage amounted to 0.218.

On to G30U G56C, for which the self-cleavage was 0.196.

On to G31U U53G, for which the self-cleavage came to 0.411.

Take G31U U53A: the self-cleavage was 0.545.

For G31A C45U, the self-cleavage was 0.888.

Consider G31A C45G, for which the self-cleavage is 0.761.

In the case of G31A C45A, the self-cleavage was 0.833.

As to G31A U61G, the self-cleavage amounted to 0.381.

Regarding G31A U61A, the self-cleavage stood at 0.364.

On to G31C U43G, for which the self-cleavage stood at 0.276.

For the variant G31C U43C, the self-cleavage was 0.289.

Consider G31U C32G, for which the self-cleavage was found to be 0.177.

For the variant G31U C32U, the self-cleavage came out at 0.32.

For the variant G30U G65C, the self-cleavage is 0.214.

With G30U G65U, the self-cleavage came to 0.162.

As to G30U C45G, the self-cleavage was 0.354.

On to G31C C35A, for which the self-cleavage was found to be 0.241.

As to G31C C35U, the self-cleavage worked out at 0.189.

For G31A G37A, the self-cleavage worked out at 0.193.

For the variant G31A G37C, the self-cleavage is 0.231.

G31U C34G: the self-cleavage stood at 0.237.

For G31U C34A, the self-cleavage is 0.232.

For the variant G31C U46A, the self-cleavage is 0.263.

As to G31C U46C, the self-cleavage is 0.164.

G31C U46G: the self-cleavage worked out at 0.205.

Turning to G30U G47U, the self-cleavage stood at 0.417.

For the variant G30U C57U, the self-cleavage worked out at 0.207.

Turning to G30U C57A, the self-cleavage turned out to be 0.235.

For the variant G30U U69A, the self-cleavage is 0.666.

As for G30U U62G, the self-cleavage came out at 0.19.

Take G30U U62C: the self-cleavage came out at 0.211.

As to G31U G50U, the self-cleavage was determined as 0.754.

G31U G50C: the self-cleavage was determined as 0.742.

Consider G31U U69C, for which the self-cleavage was 1.02.

As for G31U U69A, the self-cleavage came out at 0.876.

In the case of G31U G48C, the self-cleavage was 0.812.

As to G31U G48U, the self-cleavage amounted to 0.797.

Turning to G31U G48A, the self-cleavage turned out to be 0.756.

For G31U A52G, the self-cleavage is 0.775.

For G31U A52U, the self-cleavage was determined as 0.655.

In the case of G31A U64G, the self-cleavage worked out at 0.728.

As for G31A U46A, the self-cleavage is 0.866.

Take G31C G68C: the self-cleavage came out at 0.414.

Turning to G31C G68U, the self-cleavage came to 0.392.
